Experimental data from patent publication US20180155451A1 (published 2018).

T1: FcγRIIa H (FcγRIIa, type H allotype, His at position 131), extracellular domain with C-terminal His tag (human, UniProt P12318 34-217)
T1 construct: extracellular domain; Soluble receptor expressed in FreeStyle293 cells; analyte in Biacore; also called FcgRIIa H; 2aH; not shown: C-terminal His tag
T1 sequence (looked up): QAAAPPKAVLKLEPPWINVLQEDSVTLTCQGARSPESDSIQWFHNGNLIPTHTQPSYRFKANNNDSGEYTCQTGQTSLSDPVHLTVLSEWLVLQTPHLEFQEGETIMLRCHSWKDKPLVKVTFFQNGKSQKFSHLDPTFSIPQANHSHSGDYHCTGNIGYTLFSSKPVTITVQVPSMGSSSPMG

T2: FcγRIIb, extracellular domain with C-terminal His tag (human, UniProt P31994 43-217)
T2 construct: extracellular domain; Soluble receptor expressed in FreeStyle293 cells; analyte in Biacore; also called FcgRIIb; 2b; not shown: C-terminal His tag
T2 sequence (looked up): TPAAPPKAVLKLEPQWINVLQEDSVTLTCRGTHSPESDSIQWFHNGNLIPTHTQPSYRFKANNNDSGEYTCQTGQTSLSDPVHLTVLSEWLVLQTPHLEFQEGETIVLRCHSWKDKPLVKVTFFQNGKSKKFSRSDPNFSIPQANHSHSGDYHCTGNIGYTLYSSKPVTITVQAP

T3: FcγRIIb (human, UniProt P31994 43-217)
T3 construct: extracellular domain; also called FcgRIIb; 2b
T3 sequence (looked up): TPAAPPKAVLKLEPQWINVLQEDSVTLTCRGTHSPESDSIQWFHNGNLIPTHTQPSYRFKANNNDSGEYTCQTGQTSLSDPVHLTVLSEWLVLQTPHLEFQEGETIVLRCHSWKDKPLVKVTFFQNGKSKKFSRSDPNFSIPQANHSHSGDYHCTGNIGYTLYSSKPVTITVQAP


What was measured:
[1] = biological target: T1, FcγRIIa H (FcγRIIa, type H allotype, …); test: ratio of He/Con_2aH to He/Con_2b (FcγRIIa H over FcγRIIb), SPR
[2] = biological target: T2, FcγRIIb, extracellular domain with …; test: SPR (Biacore), captured antibody, FcγR as analyte
[3] = biological target: T1, FcγRIIa H (FcγRIIa, type H allotype, …); test: SPR (Biacore), captured antibody, FcγR as analyte
[4] = biological target: T4, FcγRIIIa extracellular domain with C-terminal His tag (human, UniProt P08637 17-208); test: SPR, relative to GpH7-A5/GpH7-B3/GpL16-k0
T4 construct: extracellular domain; also called FcgRIIIa; 3a

[5] = biological target: T3, FcγRIIb; test: SPR (Biacore), antibody captured, FcγR as analyte; relative binding
Method: The heterodimerized antibodies He Abs in which one of the H chains was introduced with an alteration were assayed for their binding activities to each activating FcγR and inhibitory FcγR according to the method described in Example 4. […] The activating FcγRs in FIGS. 26, 27, 28, and 29 are FcγRIa, FcγRIIa (R), FcγRIIa (H), and FcγRIIIa, respectively.
Analysis of interaction between objective antibody and the FcγR was carried out using Biacore T100 (GE Healthcare). HBS-EP+ (GE Healthcare) was used as the running buffer, and the measurement temperature was set to 25° C. Chips produced by immobilizing the antigen peptide by the amine coupling method to a Series S Sencor Chip CM5 (GE Healthcare), or alternatively, chips produced by allowing preliminarily biotinylated antigen peptides to interact with and immobilize onto a Series S Sensor Chip SA (certified) (GE Healthcare) were used. Antibodies of interest were captured onto an antigen peptide-immobilized chip, and allowed to interact to each FcγR diluted with running buffer. To regenerate and repeatedly use the chip, the antibodies captured on the chip were washed off by reacting 10 mM glycine-HCl, pH 1.5.

T4 sequence (P08637 17-208): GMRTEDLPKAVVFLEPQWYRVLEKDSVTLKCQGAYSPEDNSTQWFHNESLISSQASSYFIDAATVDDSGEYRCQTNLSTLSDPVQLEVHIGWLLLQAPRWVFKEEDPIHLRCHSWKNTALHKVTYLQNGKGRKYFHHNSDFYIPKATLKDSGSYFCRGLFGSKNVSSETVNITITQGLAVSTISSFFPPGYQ

Binder	He_2aH/2b (IIaH/IIb) [1]	He/Con_2b [2]	He/Con_2aH [3]	He/Con_3a [4]	He/Con_2b (IIb binding) [5]
GpH7-A5/GpH7-B3 variant D270_04F/GpL16-k0 (antibody, human IgG1, kappa, Heterodimerized IgG1; mutation only in the GpH7-B3 chain; also called He Ab) heavy 1: not shown heavy 2: not shown light: DIVMTQSPLSLPVTPGEPASISCQASESLVHSNRNTYLHWYLQKPGQSPQLLIYKVSNRFSGVPDRFSGSGSGTDFTLKISRVEAEDVGVYYCSQNTHVPPTFGQGTKVEIERTVAAPSVFIFPPSDEQLKSGTASVVCLLNNFYPREAKVQWKVDNALQSGNSQESVTEQDSKDSTYSLSSTLTLSKADYEKHKVYACEVTHQGLSSPVTKSFNRGEC	1.42	53.1 relative, GpH7-A5/GpH7-B3/GpL16-k0 = 100	75.4 relative, GpH7-A5/GpH7-B3/GpL16-k0 = 100	–	–
GpH7-A5/GpH7-B3 variant D270_11K/GpL16-k0 (antibody, human IgG1, kappa, Heterodimerized IgG1; mutation only in the GpH7-B3 chain; also called He Ab) heavy 1: not shown heavy 2: not shown light: DIVMTQSPLSLPVTPGEPASISCQASESLVHSNRNTYLHWYLQKPGQSPQLLIYKVSNRFSGVPDRFSGSGSGTDFTLKISRVEAEDVGVYYCSQNTHVPPTFGQGTKVEIERTVAAPSVFIFPPSDEQLKSGTASVVCLLNNFYPREAKVQWKVDNALQSGNSQESVTEQDSKDSTYSLSSTLTLSKADYEKHKVYACEVTHQGLSSPVTKSFNRGEC	2.17	20.3 relative, GpH7-A5/GpH7-B3/GpL16-k0 = 100	44 relative, GpH7-A5/GpH7-B3/GpL16-k0 = 100	–	–
GpH7-A5/GpH7-B3 variant S337_10E/GpL16-k0 (antibody, human IgG1, kappa, heterodimerized IgG1, mutation in one H chain only; also called He Ab) heavy 1: not shown heavy 2: not shown light: DIVMTQSPLSLPVTPGEPASISCQASESLVHSNRNTYLHWYLQKPGQSPQLLIYKVSNRFSGVPDRFSGSGSGTDFTLKISRVEAEDVGVYYCSQNTHVPPTFGQGTKVEIERTVAAPSVFIFPPSDEQLKSGTASVVCLLNNFYPREAKVQWKVDNALQSGNSQESVTEQDSKDSTYSLSSTLTLSKADYEKHKVYACEVTHQGLSSPVTKSFNRGEC	–	–	–	105 % of control (=100)	–
GpH7-A5/GpH7-B3 variant T335_10E/GpL16-k0 (antibody, human IgG1, kappa, heterodimerized IgG1, mutation in one H chain only; also called He Ab) heavy 1: not shown heavy 2: not shown light: DIVMTQSPLSLPVTPGEPASISCQASESLVHSNRNTYLHWYLQKPGQSPQLLIYKVSNRFSGVPDRFSGSGSGTDFTLKISRVEAEDVGVYYCSQNTHVPPTFGQGTKVEIERTVAAPSVFIFPPSDEQLKSGTASVVCLLNNFYPREAKVQWKVDNALQSGNSQESVTEQDSKDSTYSLSSTLTLSKADYEKHKVYACEVTHQGLSSPVTKSFNRGEC	–	–	–	107 % of control (=100)	–
GpH7-A5/GpH7-B3 variant D270_02A/GpL16-k0 (antibody, human IgG1, kappa, Heterodimerized IgG1; mutation only in the GpH7-B3 chain; also called He Ab) heavy 1: not shown heavy 2: not shown light: DIVMTQSPLSLPVTPGEPASISCQASESLVHSNRNTYLHWYLQKPGQSPQLLIYKVSNRFSGVPDRFSGSGSGTDFTLKISRVEAEDVGVYYCSQNTHVPPTFGQGTKVEIERTVAAPSVFIFPPSDEQLKSGTASVVCLLNNFYPREAKVQWKVDNALQSGNSQESVTEQDSKDSTYSLSSTLTLSKADYEKHKVYACEVTHQGLSSPVTKSFNRGEC	1.58	48.3 relative, GpH7-A5/GpH7-B3/GpL16-k0 = 100	76.4 relative, GpH7-A5/GpH7-B3/GpL16-k0 = 100	–	–
GpH7-A5/GpH7-B3 variant D265_20W/GpL16-k0 (antibody, human IgG1, kappa, heterodimerized antibody, mutation in the GpH7-B3 chain only; also called He Ab) heavy 1: not shown heavy 2: not shown light: DIVMTQSPLSLPVTPGEPASISCQASESLVHSNRNTYLHWYLQKPGQSPQLLIYKVSNRFSGVPDRFSGSGSGTDFTLKISRVEAEDVGVYYCSQNTHVPPTFGQGTKVEIERTVAAPSVFIFPPSDEQLKSGTASVVCLLNNFYPREAKVQWKVDNALQSGNSQESVTEQDSKDSTYSLSSTLTLSKADYEKHKVYACEVTHQGLSSPVTKSFNRGEC	–	–	–	–	1.1 % of GpH7-A5/GpH7-B3/GpL16-k0 (=100)
GpH7-A5/GpH7-B3 variant S337_18N/GpL16-k0 (antibody, human IgG1, kappa, heterodimerized IgG1, mutation in one H chain only; also called He Ab) heavy 1: not shown heavy 2: not shown light: DIVMTQSPLSLPVTPGEPASISCQASESLVHSNRNTYLHWYLQKPGQSPQLLIYKVSNRFSGVPDRFSGSGSGTDFTLKISRVEAEDVGVYYCSQNTHVPPTFGQGTKVEIERTVAAPSVFIFPPSDEQLKSGTASVVCLLNNFYPREAKVQWKVDNALQSGNSQESVTEQDSKDSTYSLSSTLTLSKADYEKHKVYACEVTHQGLSSPVTKSFNRGEC	–	–	–	104 % of control (=100)	–
GpH7-A5/GpH7-B3 variant D270_06M/GpL16-k0 (antibody, human IgG1, kappa, Heterodimerized IgG1; mutation only in the GpH7-B3 chain; also called He Ab) heavy 1: not shown heavy 2: not shown light: DIVMTQSPLSLPVTPGEPASISCQASESLVHSNRNTYLHWYLQKPGQSPQLLIYKVSNRFSGVPDRFSGSGSGTDFTLKISRVEAEDVGVYYCSQNTHVPPTFGQGTKVEIERTVAAPSVFIFPPSDEQLKSGTASVVCLLNNFYPREAKVQWKVDNALQSGNSQESVTEQDSKDSTYSLSSTLTLSKADYEKHKVYACEVTHQGLSSPVTKSFNRGEC	1.54	48.2 relative, GpH7-A5/GpH7-B3/GpL16-k0 = 100	74.4 relative, GpH7-A5/GpH7-B3/GpL16-k0 = 100	–	–
